Consider 1 substance from article PMC4768041.

Common to all, as to experiment: SPR
Holding throughout (settings): BIACORE 3000, RsmA-His6 (961 RU) on NTA chip; running buffer 10 mM Tris-HCl pH 7.5, 150 mM NaCl, 0.05% Tween (v/v), 1 mM [text truncated]; solutions degassed …

Data set [1] concerns RsmA-His6 (Pseudomonas aeruginosa).
The test system is the same in data set [2]. The source holds these as a separate data set.
Data set [3] has the same test system. This is another data set of the same source.

In the case of cupA1 leader RNA, the results for the binding signal (% lower RU than rsmZ RNA) in data set [1], in data set [2] and in data set [3] were 50, 67 and 59, respectively.
